Measurements taken from the supplement of paper PMC9112550, “Optimization of the antimicrobial peptide Bac7 by deep mutational scanning” (BMC Biology, 2022).

System: Escherichia coli TOP10
Assay: shrunken log2 fold change of peptide-encoding DNA abundance (4.5 h post-induction vs induction); higher = less antimicrobial activity (less host growth inhibition)
Details: time post-induction: 4.5 h; library: site-saturation at positions 5, 18, 19, 20
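Further: peptides expressed intracellularly from a pBAD plasmid library in pooled LB shake-flask culture, induced with 0.3% L-arabinose, DNA abundance read by NGS, three biological replicates, DESeq2 with apeglm shrinkage.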

Sequence	shrunken log2 fold change
RRIRCRPPRLPRPRPRPEFIPRP	-0.551
RRIRNRPPRLPRPRPRPGAMPRP	0.101
RRIRCRPPRLPRPRPRPDHVPRP	0.021
RRIRRRPPRLPRPRPRPWSEPRP	-0.142
RRIRWRPPRLPRPRPRPFHPPRP	-0.138
RRIRDRPPRLPRPRPRPQCIPRP	-0.0275
RRIRHRPPRLPRPRPRPQFNPRP	-0.619
RRIRQRPPRLPRPRPRPELRPRP	-0.043
RRIRPRPPRLPRPRPRPQAFPRP	-0.00213
RRIRVRPPRLPRPRPRPNSKPRP	-0.506
RRIRSRPPRLPRPRPRPNPNPRP	-0.283
RRIRMRPPRLPRPRPRPTRFPRP	0.261
RRIRVRPPRLPRPRPRPHRHPRP	-0.357
RRIRNRPPRLPRPRPRPTQHPRP	0.0469
RRIRRRPPRLPRPRPRPKNLPRP	-0.104
RRIRWRPPRLPRPRPRPAANPRP	-0.136
RRIRVRPPRLPRPRPRPIGTPRP	-0.0334
RRIRIRPPRLPRPRPRPQLHPRP	-0.252
RRIRPRPPRLPRPRPRPQQPPRP	0.132
RRIRIRPPRLPRPRPRPTMWPRP	-0.0599
RRIRQRPPRLPRPRPRPCNCPRP	-0.0201
RRIRNRPPRLPRPRPRPVFPPRP	-0.000239
RRIRLRPPRLPRPRPRPGFHPRP	0.0368
RRIRFRPPRLPRPRPRPTWSPRP	0.188
RRIRCRPPRLPRPRPRPCPMPRP	-8.18e-06

Sequence	shrunken log2 fold change
RRIRNRPPRLPRPRPRPIQWPRP	0.0441
RRIRYRPPRLPRPRPRPCAFPRP	-0.353
RRIRYRPPRLPRPRPRPTFDPRP	-0.76
RRIRVRPPRLPRPRPRPRRFPRP	0.309
RRIRVRPPRLPRPRPRPKGRPRP	0.211
RRIRNRPPRLPRPRPRPVIIPRP	-0.0963
RRIRGRPPRLPRPRPRPSYEPRP	0.0732
RRIRARPPRLPRPRPRPGLKPRP	0.469
RRIRIRPPRLPRPRPRPTYSPRP	-0.408
RRIRTRPPRLPRPRPRPMGAPRP	-0.0569
RRIRGRPPRLPRPRPRPFCTPRP	0.157
RRIRNRPPRLPRPRPRPQPWPRP	-0.00313
RRIRHRPPRLPRPRPRPLCQPRP	-0.316
RRIRPRPPRLPRPRPRPPCAPRP	0.925
RRIRSRPPRLPRPRPRPDFLPRP	-0.0689
RRIRMRPPRLPRPRPRPALDPRP	0.94
RRIRNRPPRLPRPRPRPHCCPRP	-0.215
RRIRGRPPRLPRPRPRPAGGPRP	0.714
RRIRIRPPRLPRPRPRPTCLPRP	-0.0168
RRIRLRPPRLPRPRPRPKPAPRP	0.679
RRIRIRPPRLPRPRPRPDIAPRP	-0.659
RRIRHRPPRLPRPRPRPENIPRP	-0.0173
RRIRARPPRLPRPRPRPVPNPRP	-0.0263
RRIRYRPPRLPRPRPRPRFIPRP	-0.671
RRIRIRPPRLPRPRPRPDGEPRP	0.0147

Sequence	shrunken log2 fold change
RRIRWRPPRLPRPRPRPNYHPRP	-0.486
RRIRMRPPRLPRPRPRPRLWPRP	0.103
RRIRMRPPRLPRPRPRPVPLPRP	-0.0409
RRIRSRPPRLPRPRPRPITWPRP	-0.284
RRIRPRPPRLPRPRPRPHWNPRP	-0.447
RRIRTRPPRLPRPRPRPDGLPRP	0.0665
RRIRQRPPRLPRPRPRPNATPRP	0.251
RRIRTRPPRLPRPRPRPHNTPRP	-0.346
RRIRYRPPRLPRPRPRPMQWPRP	-0.00277
RRIRHRPPRLPRPRPRPDNPPRP	-0.0868
RRIRKRPPRLPRPRPRPLSDPRP	0.22
RRIRDRPPRLPRPRPRPMPGPRP	0.065
RRIRLRPPRLPRPRPRPPMRPRP	1
RRIRKRPPRLPRPRPRPIHCPRP	0.0163
RRIRKRPPRLPRPRPRPRCCPRP	0.491
RRIRWRPPRLPRPRPRPVCIPRP	0.12
RRIRARPPRLPRPRPRPSIGPRP	0.111
RRIRFRPPRLPRPRPRPGNTPRP	-0.12
RRIRTRPPRLPRPRPRPVFLPRP	-0.56
RRIRTRPPRLPRPRPRPRGHPRP	0.182
RRIRLRPPRLPRPRPRPGCNPRP	-0.162
RRIRHRPPRLPRPRPRPFSVPRP	-1.26
RRIRHRPPRLPRPRPRPGASPRP	-0.196
RRIRKRPPRLPRPRPRPINHPRP	-0.408
RRIRERPPRLPRPRPRPLVTPRP	0.503

Sequence	shrunken log2 fold change
RRIRGRPPRLPRPRPRPSPCPRP	-0.0911
RRIRSRPPRLPRPRPRPFMMPRP	-0.643
RRIRKRPPRLPRPRPRPSMWPRP	1.63
RRIRWRPPRLPRPRPRPTPDPRP	0.746
RRIRHRPPRLPRPRPRPYYAPRP	-0.417
RRIRRRPPRLPRPRPRPWGGPRP	0.53
RRIRSRPPRLPRPRPRPPAYPRP	-0.0776
RRIRKRPPRLPRPRPRPFFCPRP	0.232
RRIRPRPPRLPRPRPRPTGKPRP	0.102
RRIRCRPPRLPRPRPRPFNQPRP	-0.421
RRIRIRPPRLPRPRPRPKRAPRP	0.283
RRIRDRPPRLPRPRPRPSFSPRP	-0.0351
RRIRVRPPRLPRPRPRPVSPPRP	-0.146
RRIRCRPPRLPRPRPRPEHMPRP	-0.201
RRIRERPPRLPRPRPRPWGMPRP	0.115
RRIRMRPPRLPRPRPRPRACPRP	0.593
RRIRPRPPRLPRPRPRPNYRPRP	-0.451
RRIRIRPPRLPRPRPRPWRGPRP	-0.129
RRIRHRPPRLPRPRPRPKPHPRP	0.172
RRIRDRPPRLPRPRPRPLRMPRP	0.409
RRIRFRPPRLPRPRPRPWPLPRP	-0.0977
RRIRRRPPRLPRPRPRPDQVPRP	0.0594
RRIRMRPPRLPRPRPRPVDYPRP	-0.0574
RRIRTRPPRLPRPRPRPAYPPRP	-0.072
RRIRPRPPRLPRPRPRPEKQPRP	-0.0353

Sequence	shrunken log2 fold change
RRIRARPPRLPRPRPRPLHCPRP	0.617
RRIRWRPPRLPRPRPRPHQWPRP	-0.0271
RRIRSRPPRLPRPRPRPQAVPRP	0.197
RRIRKRPPRLPRPRPRPSTAPRP	-0.177
RRIRWRPPRLPRPRPRPDICPRP	-0.0379
RRIRDRPPRLPRPRPRPNRGPRP	-0.0177
RRIRHRPPRLPRPRPRPAVHPRP	0.0645
RRIRHRPPRLPRPRPRPWNYPRP	-0.617
RRIRRRPPRLPRPRPRPVIHPRP	-0.0832
RRIRQRPPRLPRPRPRPYDAPRP	0.0382
RRIRMRPPRLPRPRPRPAMPPRP	0.548
RRIRGRPPRLPRPRPRPTEEPRP	0.525
RRIRWRPPRLPRPRPRPANQPRP	0.559
RRIRTRPPRLPRPRPRPNMWPRP	-0.365
RRIRARPPRLPRPRPRPGCPPRP	0.343
RRIRIRPPRLPRPRPRPNQNPRP	-0.391
RRIRHRPPRLPRPRPRPGYFPRP	-0.0725
RRIRYRPPRLPRPRPRPKAQPRP	0.35
RRIRHRPPRLPRPRPRPSWNPRP	-0.264
RRIRPRPPRLPRPRPRPIMYPRP	-0.175
RRIRARPPRLPRPRPRPCYWPRP	-0.000727
RRIRIRPPRLPRPRPRPHFGPRP	-0.00693
RRIRSRPPRLPRPRPRPNRYPRP	-0.296
RRIRLRPPRLPRPRPRPLHCPRP	0.118
RRIRQRPPRLPRPRPRPKIAPRP	0.278

Sequence	shrunken log2 fold change
RRIRPRPPRLPRPRPRPNGPPRP	-0.027
RRIRARPPRLPRPRPRPDIGPRP	0.0329
RRIRRRPPRLPRPRPRPFPIPRP	0.199
RRIRGRPPRLPRPRPRPALKPRP	0.504
RRIRKRPPRLPRPRPRPRHKPRP	0.458
RRIRVRPPRLPRPRPRPKHNPRP	-0.292
RRIRNRPPRLPRPRPRPDKMPRP	0.0206
RRIRWRPPRLPRPRPRPYWQPRP	-0.0738
RRIRDRPPRLPRPRPRPCWPPRP	0.073
RRIRARPPRLPRPRPRPHSIPRP	-0.344
RRIRQRPPRLPRPRPRPQALPRP	0.0286
RRIRTRPPRLPRPRPRPWPFPRP	-0.0102
RRIRRRPPRLPRPRPRPKMTPRP	0.24
RRIRDRPPRLPRPRPRPPCRPRP	-0.0227
RRIRKRPPRLPRPRPRPQFMPRP	-0.54
RRIRQRPPRLPRPRPRPTFPPRP	-0.0691
RRIRWRPPRLPRPRPRPADVPRP	-0.305
RRIRERPPRLPRPRPRPFRVPRP	-0.0333
RRIRMRPPRLPRPRPRPDWFPRP	0.235
RRIRTRPPRLPRPRPRPATHPRP	-0.152
RRIRERPPRLPRPRPRPKRYPRP	-0.051
RRIRVRPPRLPRPRPRPATFPRP	-0.387
RRIRVRPPRLPRPRPRPIPVPRP	-0.363
RRIRKRPPRLPRPRPRPSVLPRP	0.0575
RRIRHRPPRLPRPRPRPNDSPRP	-0.072
